Data set [1] deals with His-YAP-SA (recombinant hexahistidine-tagged YAP serine to alanine mutant, pET-15b).
Data set [2] addresses YAP S127A mutant (human YAP, transfected, Flag- or HA-tagged).

B1: LATS2 (human cDNA, GenBank Accession No. NP-055387.2, Flag- or HA-tagged) (protein)
chain: MRPKTFPATTYSGNSRQRLQEIREGLKQPSKSSVQGLPAGPNSDTSLDAKVLGSKDATRQQQQMRATPKFGPYQKALREIRYSLLPFANESGTSAAAEVNRQMLQELVNAGCDQEMAGRALKQTGSRSIEAALEYISKMGYLDPRNEQIVRVIKQTSPGKGLMPTPVTRRPSFEGTGDSFASYHQLSGTPYEGPSFGADGPTALEEMPRPYVDYLFPGVGPHGPGHQHQHPPKGYGASVEAAGAHFPLQGAHYGRPHLLVPGEPLGYGVQRSPSFQSKTPPETGGYASLPTKGQGGPPGAGLAFPPPAAGLYVPHPHHKQAGPAAHQLHVLGSRSQVFASDSPPQSLLTPSRNSLNVDLYELGSTSVQQWPAATLARRDSLQKPGLEAPPRAHVAFRPDCPVPSRTNSFNSHQPRPGPPGKAEPSLPAPNTVTAVTAAHILHPVKSVRVLRPEPQTAVGPSHPAWVPAPAPAPAPAPAPAAEGLDAKEEHALALGGAGAFPLDVEYGGPDRRCPPPPYPKHLLLRSKSEQYDLDSLCAGMEQSLRAGPNEPEGGDKSRKSAKGDKGGKDKKQIQTSPVPVRKNSRDEEKRESRIKSYSPYAFKFFMEQHVENVIKTYQQKVNRRLQLEQEMAKAGLCEAEQEQMRKILYQKESNYNRLKRAKMDKSMFVKIKTLGIGAFGEVCLACKVDTHALYAMKTLRKKDVLNRNQVAHVKAERDILAEADNEWVVKLYYSFQDKDSLYFVMDYIPGGDMMSLLIRMEVFPEHLARFYIAELTLAIESVHKMGFIHRDIKPDNILIDLDGHIKLTDFGLCTGFRWTHNSKYYQKGSHVRQDSMEPSDLWDDVSNCRCGDRLKTLEQRARKQHQRCLAHSLVGTPNYIAPEVLLRKGYTQLCDWWSVGVILFEMLVGQPPFLAPTPTETQLKVINWENTLHIPAQVKLSPEARDLITKLCCSADHRLGRNGADDLKAHPFFSAIDFSSDIRKQPAPYVPTISHPMDTSNFDPVDEESPWNDASEGSTKAWDTLTSPNNKHPEHAFYEFTFRRFFDDNGYPFRCPKPSGAEASQAESSDLESSDLVDQTEGCQPVYV
In the case of B1, in data set [1], the “in-vitro kinase assay, 32P-labeled YAP by autoradiography” value was “markedly reduced levels of phosphorylation of YAP S127A mutant by LATS1/2”. In addition, in data set [2], the “phosphorylation of YAP in co-transfected WW45-deficient keratinocytes (Western blot)” value is “only the S127A mutant was not phosphorylated by activated LATS2 in cells”.

B2: LATS1 (human cDNA, GenBank Accession No. NP-004681.1, Flag- or HA-tagged) (protein)
chain: MKRSEKPEGYRQMRPKTFPASNYTVSSRQMLQEIRESLRNLSKPSDAAKAEHNMSKMSTEDPRQVRNPPKFGTHHKALQEIRNSLLPFANETNSSRSTSEVNPQMLQDLQAAGFDEDMVIQALQKTNNRSIEAAIEFISKMSYQDPRREQMAAAAARPINASMKPGNVQQSVNRKQSWKGSKESLVPQRHGPPLGESVAYHSESPNSQTDVGRPLSGSGISAFVQAHPSNGQRVNPPPPPQVRSVTPPPPPRGQTPPPRGTTPPPPSWEPNSQTKRYSGNMEYVISRISPVPPGAWQEGYPPPPLNTSPMNPPNQGQRGISSVPVGRQPIIMQSSSKFNFPSGRPGMQNGTGQTDFMIHQNVVPAGTVNRQPPPPYPLTAANGQSPSALQTGGSAAPSSYTNGSIPQSMMVPNRNSHNMELYNISVPGLQTNWPQSSSAPAQSSPSSGHEIPTWQPNIPVRSNSFNNPLGNRASHSANSQPSATTVTAITPAPIQQPVKSMRVLKPELQTALAPTHPSWIPQPIQTVQPSPFPEGTASNVTVMPPVAEAPNYQGPPPPYPKHLLHQNPSVPPYESISKPSKEDQPSLPKEDESEKSYENVDSGDKEKKQITTSPITVRKNKKDEERRESRIQSYSPQAFKFFMEQHVENVLKSHQQRLHRKKQLENEMMRVGLSQDAQDQMRKMLCQKESNYIRLKRAKMDKSMFVKIKTLGIGAFGEVCLARKVDTKALYATKTLRKKDVLLRNQVAHVKAERDILAEADNEWVVRLYYSFQDKDNLYFVMDYIPGGDMMSLLIRMGIFPESLARFYIAELTCAVESVHKMGFIHRDIKPDNILIDRDGHIKLTDFGLCTGFRWTHDSKYYQSGDHPRQDSMDFSNEWGDPSSCRCGDRLKPLERRAARQHQRCLAHSLVGTPNYIAPEVLLRTGYTQLCDWWSVGVILFEMLVGQPPFLAQTPLETQMKVINWQTSLHIPPQAKLSPEASDLIIKLCRGPEDRLGKNGADEIKAHPFFKTIDFSSDLRQQSASYIPKITHPTDTSNFDPVDPDKLWSDDNEEENVNDTLNGWYKNGKHPEHAFYEFTFRRFFDDNGYPYNYPKPIEYEYINSQGSEQQSDEDDQNTGSEIKNRDLVYV
Take B2: the “in-vitro kinase assay, 32P-labeled YAP by autoradiography” value in data set [1] was “markedly reduced levels of phosphorylation of YAP S127A mutant by LATS1/2”.

For the origin of these results see US20090312251.
